{
  "source": "patent US5780279A",
  "about": "“Method of selection of proteolytic cleavage sites by directed evolution and phagemid display” (Genentech, Inc., priority 1995, dated 1998)",
  "origin": "cited, not measured here",
  "target": "A64SAL subtilisin (Bacillus amyloliquefaciens, UniProt P00782, E263S/G276A/H171A/S131C/Y324L)",
  "sequence (P00782 108-382 S131C/H171A/E263S/G276A/Y324L)": "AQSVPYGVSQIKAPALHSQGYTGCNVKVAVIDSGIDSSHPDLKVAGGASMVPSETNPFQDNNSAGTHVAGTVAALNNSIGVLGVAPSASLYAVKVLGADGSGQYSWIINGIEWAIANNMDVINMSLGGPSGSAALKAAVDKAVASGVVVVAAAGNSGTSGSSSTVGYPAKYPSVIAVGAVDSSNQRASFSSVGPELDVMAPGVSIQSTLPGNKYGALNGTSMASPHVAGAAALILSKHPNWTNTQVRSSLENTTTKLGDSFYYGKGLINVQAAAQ",
  "settings": "Carter et al (1989)",
  "note": "Where no end group is shown, it is not given here.",
  "data": [
    {"substance": "AAHYTRQ", "values": [
      {"measurement": "substrate quality for A64SAL subtilisin", "value": "good substrate"}
    ]}
  ]
}
